Results published in patent US7785835.

Tests used:
[1] = biological target: vitronectin (UniProt P04004); test: cell-based or functional assay
[2] = biological target: vitronectin (UniProt P04004); test: competition binding assay, displacement of [^125I]-IGF-II from VN-coated wells (300 ng/well)

Chain of insulin-like growth factor-II (P01344 25-91 limits assumed): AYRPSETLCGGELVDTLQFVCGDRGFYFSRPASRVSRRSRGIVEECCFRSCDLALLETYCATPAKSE
Chain of vitronectin (P04004 20-478 limits assumed): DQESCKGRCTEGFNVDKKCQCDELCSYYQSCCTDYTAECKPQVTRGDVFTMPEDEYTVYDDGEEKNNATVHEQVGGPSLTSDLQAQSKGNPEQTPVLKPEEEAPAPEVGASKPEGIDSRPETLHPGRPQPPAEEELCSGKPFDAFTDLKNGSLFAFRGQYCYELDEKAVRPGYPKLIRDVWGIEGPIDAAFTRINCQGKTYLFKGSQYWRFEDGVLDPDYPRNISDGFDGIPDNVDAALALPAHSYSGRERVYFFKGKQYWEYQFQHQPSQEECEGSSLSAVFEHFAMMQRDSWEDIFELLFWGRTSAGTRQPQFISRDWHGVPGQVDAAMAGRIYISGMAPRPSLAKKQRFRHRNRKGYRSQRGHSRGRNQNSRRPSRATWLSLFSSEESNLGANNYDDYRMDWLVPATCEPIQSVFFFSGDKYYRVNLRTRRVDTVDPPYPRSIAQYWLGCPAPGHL

insulin-like growth factor-II (from UniProt P01344 25-91) (ligand)
incorporation of [^3H]-leucine into protein in human keratinocytes, % above control; 3 ng IGF-II pre-bound to VN coated wells [1]: 19% | incorporation of [^3H]-leucine into protein in human keratinocytes, % above control; 10 ng IGF-II pre-bound to VN coated wells [1]: 29% | incorporation of [^3H]-leucine into protein in human keratinocytes, % above control; 30 ng IGF-II pre-bound to VN coated wells [1]: 39% | incorporation of [^3H]-leucine into protein in human keratinocytes, % above control; 100 ng IGF-II pre-bound to VN coated wells [1]: 51% | incorporation of [^3H]-leucine into protein in human keratinocytes, % above control; 300 ng IGF-II pre-bound to VN coated wells [1]: 70% | incorporation of [^3H]-leucine into protein in human keratinocytes, % above control; 1000 ng IGF-II pre-bound to VN coated wells [1]: 101% | synergistic effect in protein synthesis above the calculated additive effect of VN alone and IGF-II alone [1]: 5 to 46% | IC50 [2]: 9.6 nM
